Data published in PMC3988563 (2014).

Molecular target: Ribosome termination complex (70S ribosomes, fMet-STOP mRNA and fMet-tRNA^fMet) (E. coli)
Test: with RF3:GDP

koff: 0.08 s⁻¹
B1: Fluorescein-labeled GAQ-RF1 (single-cysteine L82C or A220C) (natural protein)
chain: MKPSIVAKLEALHERHEEVQALLGDAQTIADQERFRALSREYAQLSDVSRSFTDWQQVQEDIETAQMMLDDPEMREMAQDELREAKEKSEQLEQQLQVLLLPKDPDDERNAFLEVRAGTGGDEAALFAGDLFRMYSRYAEARRWRVEIMSASEGEHGGYKEIIAKISGDGVYGRLKFESGGHRVQRVPATESQGRIHTSASTVAVMPELPDAELPDINPCDLRIDTFRSSGAGAQHVNTTDSAIRITHLPTGIVVESQDERSQHKNKAKALSVLGARIHAAEMAKRQQAEASTRRNLLGSGDRSDRNRTYNFPQGRVTDHRINLTLYRLDEVMEGKLDMLIEPIIQEHQADQLAALSEQE
modifications: fluorescein (fluorescein-maleimide) on the introduced cysteine
